Where a chain is given by its changes, count along the chain named.
Tests used:
Test in all cases: cleavage_in_vitro; PAM TTC; 5 mM Mg2+
Conditions in all cases: tags: C-terminal His6; label: 5'-FAM on NT-strand, 3'-FAM on T-strand
CasΦ3 Q123A = molecular target: T1, CasΦ3 Q123A (Biggiephage, Q123A)
T1 chain: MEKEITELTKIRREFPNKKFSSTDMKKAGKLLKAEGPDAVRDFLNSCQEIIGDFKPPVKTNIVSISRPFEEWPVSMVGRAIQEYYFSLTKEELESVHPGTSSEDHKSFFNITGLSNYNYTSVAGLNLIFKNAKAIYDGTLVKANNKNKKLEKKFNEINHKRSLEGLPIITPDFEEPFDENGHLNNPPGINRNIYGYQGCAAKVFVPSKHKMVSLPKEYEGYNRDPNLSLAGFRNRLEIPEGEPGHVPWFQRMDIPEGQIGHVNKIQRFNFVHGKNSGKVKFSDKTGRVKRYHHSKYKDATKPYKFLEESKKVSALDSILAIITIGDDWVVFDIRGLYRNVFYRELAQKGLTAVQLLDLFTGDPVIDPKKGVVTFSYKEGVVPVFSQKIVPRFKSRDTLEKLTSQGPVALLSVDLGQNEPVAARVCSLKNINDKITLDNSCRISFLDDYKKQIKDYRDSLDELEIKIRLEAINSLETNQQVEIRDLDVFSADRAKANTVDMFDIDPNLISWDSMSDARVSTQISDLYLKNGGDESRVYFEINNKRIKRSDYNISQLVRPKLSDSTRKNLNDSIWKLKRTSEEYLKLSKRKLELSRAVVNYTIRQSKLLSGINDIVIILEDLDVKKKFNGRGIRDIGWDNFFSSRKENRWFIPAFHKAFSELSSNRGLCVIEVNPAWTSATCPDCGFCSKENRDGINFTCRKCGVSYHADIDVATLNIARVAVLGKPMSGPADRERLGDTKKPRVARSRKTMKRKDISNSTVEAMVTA

CasΦ3 K30A = molecular target: T2, CasΦ3 K30A (Biggiephage, K30A)
T2 chain: T1 chain with K30A, A123Q

CasΦ3 Q197A = molecular target: T3, CasΦ3 Q197A (Biggiephage, Q197A)
T3 chain: T1 chain with A123Q, Q197A

B1: CasΦ3 crRNA ; FAM-labelled target dsDNA (5F-NT-TTC-30/3F-T-AAG-30) (ssRNA ; dsDNA)
RNA: UAUUGAUUGCCCAGUACGCUGGGACAGCUGGUAAUGGGAUACCUU
DNA 1: GTAATTCAGCTGGTAATGGGATACCTTGTGCTACAGC
DNA 2: GCTGTAGCACAAGGTATCCCATTACCAGCTGAATTAC
B1 showed an activity (CasΦ3 Q123A) of ~90 % reduction vs WT, an activity (CasΦ3 K30A) of ~55 % reduction vs WT and an activity (CasΦ3 Q197A) of ~90 % reduction vs WT.
